Laboratory results from patent US6713276B2, “Modulation of Aβ levels by β-secretase BACE2” (Scios, Inc., priority 2000, dated 2004).

B1: BACE2: human aspartyl protease, close homolog of BACE (SEQ ID NO: 2), expressed from pcDNA3.1(−)/BACE2 in transfected cells (protein)
chain: MGALARALLLPLLAQWLLRAAPELAPAPFTLPLRVAAATNRVVAPTPGPGTPAERHADGLALALEPALASPAGAANFLAMVDNLQGDSGRGYYLEMLIGTPPQKLQILVDTGSSNFAVAGTPHSYIDTYFDTERSSTYRSKGFDVTVKYTQGSWTGFVGEDLVTIPKGFNTSFLVNIATIFESENFFLPGIKWNGILGLAYATLAKPSSSLETFFDSLVTQANIPNVFSMQMCGAGLPVAGSGTNGGSLVLGGIEPSLYKGDIWYTPIKEEWYYQIEILKLEIGGQSLNLDCREYNADKAIVDSGTTLLRLPQKVFDAVVEAVARASLIPEFSDGFWTGSQLACWTNSETPWSYFPKISIYLRDENSSRSFRITILPQLYIQPMMGAGLNYECYRFGISPSTNALVIGATVMEGFYVIFDRAQKRVGFAASPCAEIAGAAVSEISGPFSTEDVASNCVPAQSLSEPILWIVSYALMSVCGAILLVLIVLLLLPFRCQRRPRDPEVVNDESSLVRHRWK
B2: BACE2 D110A: single D110A BACE2 mutant of a critical aspartate residue, made by site-directed mutagenesis (protein)
chain: ALEPALASPAGAANFLAMVDNLQGDSGRGYYLEMLIGTPPQKLQILVATGSSNFAVAGTPHSYIDTYFDTERSSTYRSKGFDVTVKYTQGSWTGFVGEDLVTIPKGFNTSFLVNIATIFESENFFLPGIKWNGILGLAYATLAKPSSSLETFFDSLVTQANIPNVFSMQMCGAGLPVAGSGTNGGSLVLGGIEPSLYKGDIWYTPIKEEWYYQIEILKLEIGGQSLNLDCREYNADKAIVDSGTTLLRLPQKVFDAVVEAVARASLIPEFSDGFWTGSQLACWTNSETPWSYFPKISIYLRDENSSRSFRITILPQLYIQPMMGAGLNYECYRFGISPSTNALVIGATVMEGFYVIFDRAQKRVGFAASPCAEIAGAAVSEISGPFSTEDVASNCVPAQSLSEPILWIVSYALMSVCGAILLVLIVLLLLPFRCQRRPRDPEVVNDESSLVRHRWK

Test system: APP751sw
Assay: cell-free β-secretase assay, β-NTF ELISA, APP751sw substrate
Assay type: biochemical, human
Conditions: membrane extracts of transfected HEK293 cells, pH 4.5, 37° C.
Protocol: The β-secretase assay consists of two different parts, an incubation or reaction phase to generate β-NTF and an ELISA part to capture and measure the β-NTF generated by β-secretase. The β-secretase ELISA was performed as follows. Each well of a 96 well plate containing a flat bottom (high protein binding, Corning, N.Y.) was coated with 100 μl of the monoclonal capture antibody 8E5 (at ˜8-10 μg/ml) (Johnson-Wood et al. Proc. Natl. Acad. Sci. USA 94: 1550-1555 [1997]). The plate was then covered with parafilm and incubated overnight at 4° C. or alternatively for 2 hours at 37° C. […]
One hundred μl of a 1:5000 dilution of a goat anti rabbit IgG-HRP in Antibody-Conjugate Buffer was then added to each well, and the plate incubated at room temperature for one hour. […] After sufficient blue color had developed, the reactions were stopped by adding 100 μl of 5N H2SO4 to each well, and the amount of βNTF was determined by reading the plate at 450 nm in a Softmax spectrophotometer.
Equal amounts of membrane extracts from either mock, BACE or BACE2 transfected HEK293 cells were incubated with partially purified full length APP751 sw or APP751wt for the indicated times. The formation of β-NTF was then determined using the respective β-NTF specific ELISA as described in General Methodology.

Molecule	β-NTF formation (β-secretase cleavage in vitro)
B1	time-dependent increase in β-NTF formation
B2	lost their ability to cleave at the β-secretase site in vitro
